In paper PMC8902505, “A Continuous Assay Set to Screen and Characterize Novel Protein N-Acetyltransferases Unveils Rice General Control Non-repressible 5-Related N-Acetyltransferase2 Activity” (Frontiers in Plant Science, 2022):
One block for each molecule: values may come before it.

Experiments:
OsGNAT2 = biological target: T1, OsGNAT2 (Oryza sativa, UniProt Q5KQI6); test: PDH-coupled continuous assay (NADH, […] nm); type: biochemical; conditions: upper bound inferred from no gain between 100 and 500 μM Ac-CoA; peptide substrate; pH 8.0; 30 °C
T1 construct: gene SNAT1
T1 sequence (Q5KQI6 89-254): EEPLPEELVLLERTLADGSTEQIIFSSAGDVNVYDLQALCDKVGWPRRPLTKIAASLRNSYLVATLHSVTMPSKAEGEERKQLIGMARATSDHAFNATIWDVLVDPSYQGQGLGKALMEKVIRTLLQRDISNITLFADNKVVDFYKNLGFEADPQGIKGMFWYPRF

[1] = biological target: Schizosaccharomyces pombe NatA (SpNaa15 full length + SpNaa10 full length heterodimer) (Schizosaccharomyces pombe)
[2] = biological target: Schizosaccharomyces pombe NatA (SpNaa15 full length + SpNaa10 full length heterodimer) (Schizosaccharomyces pombe); remark: listed apart in the source
purified protein = substrate: CC(=O)SCCNC(=O)CCNC(=O)[C@H](O)C(C)(C)COP(=O)(O)OP(=O)(O)OC[C@H]1O[C@@H](n2cnc3c(N)ncnc32)[C@H](O)[C@@H]1OP(=O)(O)O; test: purified protein; conditions: extrapolated to saturating reference peptide …, 12.5-500 μM Ac-CoA, pH 8.0, 30 °C

Molecule: CC(=O)SCCNC(=O)CCNC(=O)[C@H](O)C(C)(C)COP(=O)(O)OP(=O)(O)OC[C@H]1O[C@@H](n2cnc3c(N)ncnc32)[C@H](O)[C@@H]1OP(=O)(O)O [Ac-CoA]
Km (OsGNAT2): < 0.03 mM

B2: natural 19-amino acid N-terminal sequence of yeast Ths1p, … (peptide)
peptide: SASEAGVAEQVKKLSVNDS
Km of the peptide substrate, PDH-coupled acetylation assay, 100 μM Ac-CoA, 30°C [1]: 2.3 mM

B4: SpNatA (Schizosaccharomyces pombe 972h-) (protein)
chain: MDIRPARISDLTGMQNCNLHNLPENYQLKYYLYHAISWPMLSYVATDPKGRVVGYVLAKMEEEPKDGIPHGHITSVSVMRSYRHLGLAKRLMVQSQRAMVEVYGAKYMSLHVRKSNRAAIHLYRDTLQFDVQGIESKYYADGEDAYAMHKDFSTLKFDTPETNDELAKTVQSLALNN
Km (purified protein): 0.020 ± 0.003 mM
kcat (purified protein): 10 s⁻¹
kcat/Km (purified protein): 508000 ± 89900 M⁻¹ s⁻¹

Other lines, results leading:

Km of the peptide substrate, PDH-coupled acetylation assay, 100 μM Ac-CoA, 30°C [1]: 25.5 mM
Km of the peptide substrate, PDH-coupled acetylation assay, 100 μM Ac-CoA, 30°C (value as told in the text) [2]: 19 mM
B1: peptide SASEAGV (peptide)
peptide: SASEAGV

Km of the peptide substrate, PDH-coupled acetylation assay, 100 μM Ac-CoA, 30°C [1]: 1 mM
B3: reference peptide … (canonical NatA substrate) (peptide)
peptide: SASEAGVRWGRPVGRRRRP

Km of the peptide substrate, PDH-coupled acetylation assay, 100 μM Ac-CoA, 30°C [1]: 14.8 mM
Km of the peptide substrate, PDH-coupled acetylation assay, 100 μM Ac-CoA, 30°C (value as told in the text) [2]: 12 mM
B5: peptide SASEAGVR (peptide)
peptide: SASEAGVR
